Test results: article PMC5025653

Target: C-terminal region of IbOr (IbOr-C), recombinant (sweetpotato (Ipomoea batatas))
Test: native gel or EMSA; 10% native PAGE gel, silver-stained; recombinant IbOr and truncated fragments

Substance: C-terminal region of IbOr (IbOr-C), recombinant (domain or fragment)
- stoichiometry N: 3
